In patent US20230287060, “PROTEINS AND THEIR USE FOR NUCLEOTIDE BINDING” (The University of Western Australia, published 2023):

Target: T1, cPPR-Telo1 (synthetic construct)
T1 chain: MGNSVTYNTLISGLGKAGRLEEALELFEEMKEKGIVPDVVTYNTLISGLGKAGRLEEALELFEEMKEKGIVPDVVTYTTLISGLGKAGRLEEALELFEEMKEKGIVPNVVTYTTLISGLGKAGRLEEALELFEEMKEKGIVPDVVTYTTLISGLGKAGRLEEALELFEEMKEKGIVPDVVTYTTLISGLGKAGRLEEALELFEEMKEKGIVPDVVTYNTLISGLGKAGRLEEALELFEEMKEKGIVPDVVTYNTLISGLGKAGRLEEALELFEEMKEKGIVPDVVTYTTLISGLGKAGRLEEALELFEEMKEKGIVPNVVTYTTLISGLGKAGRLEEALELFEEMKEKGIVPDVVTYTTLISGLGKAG
Assay: structure; co-crystal structure 2.0 A, PDB 5ORQ; protein/DNA 1:2; 100 mM sodium acetate pH 4.6, 20 mM CaCl2, 22% MPD
Conditions: tags: GST and His tags (pETM30, E. coli)
Protocol: Crystals of cPPR-Telo1 were grown at 23° C. by the sitting drop vapour diffusion method by mixing 1 μl protein (5 mg/ml) with an equal volume of reservoir solution (100 mM sodium acetate pH 4.6, 20 mM calcium chloride, and 40% MPD). In addition, cPPR-Telo1 was incubated with target ssDNA oligonucleotide (TTAGGGTTAG) at a protein/DNA molar ratio of 1:2 for 30 min at 4° C. and crystallized in 100 mM sodium acetate pH 4.6, 20 mM calcium chloride, and 22% MPD. For both cPPR-Telo1 and cPPR-Telo1/ssDNA a single-wavelength anomalous dispersion dataset was collected at the K-edge of selenium at beam line ID30A-3 (ESRF, Grenoble, France). […] Acta Crystallogr D Biol Crystallogr 66, 213-21 (2010) was used as a starting model for manual building in COOT (Emsley, P. & Cowtan, K. Coot: model-building tools for molecular graphics. Acta Crystallogr D Biol Crystallogr 60, 2126-32 (2004) interspersed with refinement in Buster (version 2.10.3) (Smart, O. S. et al. Exploiting structure similarity in refinement: automated NCS and target-structure restraints in BUSTER. Acta Crystallogr D Biol Crystallogr 68, 368-80 (2012), which rendered a final model (Table 1) that had no Ramachandran outliers as assessed by MOLPROBITY (Lovell, S. C. et al. Structure validation by Calpha geometry: phi,psi and Cbeta deviation. […]

TTAGGGTTAG (ssDNA) [telomeric ssDNA target 10-mer]: binds.
